US11400156B2, “Methods of preventing secondary infections” (Yeda Research and Development Co. Ltd., priority 2015, dated 2022)
Read-outs that look alike come from different tables or passages of the source.

Assays:
S. pneumoniae = format: in vivo, C57BL/6J mice
[1] = system: influenza A/Puerto Rico/8/34 (A/PR/8/34, H1N1); format: in vivo, C57BL/6J mice
[2] = system: PR8 influenza virus followed by S. pneumoniae; format: in vivo, C57BL/6J mice
[3] = system: influenza A/Puerto Rico/8/34 (A/PR/8/34, H1N1); format: in vivo, C57BL/6J mice; remark: listed apart in the source
[4] = system: collagenolytic activity in lung section; design: species or system C57BL/6J mice; conditions: mouse, in vivo
[5] = system: influenza A/Puerto Rico/8/34 (A/PR/8/34, H1N1); format: in vivo, C57BL/6J mice; remark: listed apart in the source
MT1-MMP = MT1-MMP (Homo sapiens, UniProt P50281); conditions: cited from earlier work
[6] = influenza-infected mice, versus control treated
[7] = sub-lethal PR8 influenza, 74 hours post infection

CCOC(=O)C1=C[C@@H](OC(CC)CC)[C@H](NC(C)=O)[C@@H](N)C1 [Tamiflu, Oseltamivir phosphate, reference compound]
bacteremia and dissemination of S. pneumoniae from lungs to systemic circulation and spleen (S. pneumoniae; mouse, in vivo): developed sepsis
reduction of viral burden in whole-lung homogenates (qPCR) ([1]; versus vehicle-treated mice): 10-100 fold
alveolar and bronchial structures / collateral damage in lung ECM (AirSEM) ([2]; mouse, in vivo): ineffective in preventing collateral damage in the lung ECM
survival rates and clinical scores, preventive treatment (comparison in words) ([2]; mouse, in vivo): same survival rates and clinical scores as the group that received anti-MT1-MMP
survival, therapeutic treatment ([2]; mouse, in vivo): 20%
tissue integrity, ECM morphology and collagen structure (AirSEM) ([3]; mouse, in vivo): same destructive lung tissue and ECM phenotypes were observed

B1: LEM 2/15: selective allosteric inhibitory antibody of MT1-MMP from LEM-2/15 hybridoma cells; Fab fragment given to mice at 3 mg/kg (antibody, V domains shown)
VL: LVIDVLMTQTPLSLPVGLGDQASISCRSSQSIVHSNGNTYLEWYLQKPGQSPKLLIYKVSNRFSGVPDRFSGSGSGTDFTLKISRVEAEDLGVYYCFQGSHAPYTFGGGTKLEIKR
VH: EVKLVESGGGLVKPGGSLKLSCAASGFIFSNYAMSWVRQTPEKRLEWVATISGGGRNIYSLDSVKGRFTFFRDNARNTLYLQMSSLRSEDTAMYFCSRENYGSSFTYWGQGTLVTVS
modifications: Fab fragment; LEM-2/15.8 antibody VH amino acid sequence; LEM-2/15.8 antibody VL amino acid sequence
bacteremia and dissemination of S. pneumoniae from lungs to systemic circulation and spleen (S. pneumoniae; co-infected mice, 2 days post bacterial infection, listed as MT1-MMP inhibitory antibody): reduced spread of bacteria
bacteremia and dissemination of S. pneumoniae from lungs to systemic circulation and spleen (S. pneumoniae; co-infected mice, 2 days post bacterial infection, listed as anti-MT1-MMP inhibitor): did not develop systemic bacterial dissemination
proteolysis by functional in situ zymography [4]: significant attenuation of proteolysis
recruitment of macrophages and neutrophils to infected lungs (FACS) ([5]; 74 hours post-infection, versus control antibody): no detectable differences
IL-1β level in BALF [5, 6]: strongly induced in influenza-infected mice regardless of MT1-MMP activity
TNF-α level in BALF [5, 6]: strongly induced in influenza-infected mice regardless of MT1-MMP activity
concentration at which the inhibitory antibody of MT1-MMP is effective (MT1-MMP; inhibits collagenase activity of MT1-MMP expressed on the cell surface): nano-molar concentrations
interference with proMMP-2 activation and enzyme dimerization on the cell surface (MT1-MMP; selectivity of inhibition): without significantly interfering
effect on viral burden, early phases of infection ([1]; 24 hours post infection): minimal effect
effect on viral burden, later stages ([1]; later stages of infection): no effect was discernible
survival rates and clinical scores, preventive treatment (comparison in words) ([2]; co-infection, treatment one day before infection (-1)): equally effective in preventing co-infection induced mortality
survival, therapeutic treatment ([2]; co-infection, treatment one day post infection (+1)): 70%
collagen type I fibers (two-photon second harmonic generation, 3D analysis) [3, 7]: more abundant
laminin degradation in infected lungs (immunostaining) [3, 7]: protected laminin
tissue integrity, ECM morphology and collagen structure (AirSEM) [3, 7]: protected tissue integrity
